How the values were obtained:
[1] = substrate: C[N+](C)(C)CC=O; assay: purified protein; settings: 50 mM HEPES-KOH pH 8.0, 500 μM NAD+
[2] = substrate: C[N+](C)(C)CCCC=O; assay: spectrophotometric aldehyde dehydrogenase assay (NADH formation); assay type: biochemical, Leymus chinensis; settings: 50 mM HEPES-KOH pH 8.0, 500 μM NAD+
Excerpt: (§1) spectrophotometric aldehyde dehydrogenase assay (NADH formation) on LcBADH2

[3] = substrate: C[N+](C)(C)CCC=O; assay: as above; assay type: biochemical, Leymus chinensis; settings: 50 mM HEPES-KOH pH 8.0, 500 μM NAD+
Excerpt: as §1

[4] = substrate: NCCC=O; assay: as above; assay type: biochemical, Leymus chinensis; settings: 50 mM HEPES-KOH pH 8.0, 500 μM NAD+
Excerpt: as §1

[5] = substrate: NC(=O)c1ccc[n+]([C@@H]2O[C@H](COP(=O)(O)OP(=O)(O)OC[C@H]3O[C@@H](n4cnc5c(N)ncnc54)[C@H](O)[C@@H]3O)[C@@H](O)[C@H]2O)c1; assay: as above; assay type: biochemical, Leymus chinensis; settings: 50 mM HEPES-KOH pH 8.0, 200 μM betaine aldehyde
Excerpt: as §1

[6] = substrate: NCCCC=O; assay: as above; assay type: biochemical, Leymus chinensis; settings: 50 mM HEPES-KOH pH 8.0, 500 μM NAD+
Excerpt: as §1

[7] = substrate: NC(=O)c1ccc[n+]([C@@H]2O[C@H](COP(=O)(O)OP(=O)(O)OC[C@H]3O[C@@H](n4cnc5c(N)ncnc54)[C@H](OP(=O)(O)O)[C@@H]3O)[C@@H](O)[C@H]2O)c1; assay: as above; assay type: biochemical, Leymus chinensis; settings: 50 mM HEPES-KOH pH 8.0, 200 μM betaine aldehyde
[8] = substrate: C[N+](C)(C)CCCC=O; assay: as above; assay type: biochemical, Leymus chinensis; settings: 50 mM HEPES-KOH pH 8.0, 500 μM NAD+; remark: listed apart in the source
Excerpt: (§2) spectrophotometric aldehyde dehydrogenase assay (NADH formation) on LcBADH1

[9] = substrate: C[N+](C)(C)CCC=O; assay: as above; assay type: biochemical, Leymus chinensis; settings: 50 mM HEPES-KOH pH 8.0, 500 μM NAD+; remark: listed apart in the source
Excerpt: as §2

[10] = substrate: NCCC=O; assay: as above; assay type: biochemical, Leymus chinensis; settings: 50 mM HEPES-KOH pH 8.0, 500 μM NAD+; remark: listed apart in the source
Excerpt: as §2

[11] = substrate: NC(=O)c1ccc[n+]([C@@H]2O[C@H](COP(=O)(O)OP(=O)(O)OC[C@H]3O[C@@H](n4cnc5c(N)ncnc54)[C@H](O)[C@@H]3O)[C@@H](O)[C@H]2O)c1; assay: as above; assay type: biochemical, Leymus chinensis; settings: 50 mM HEPES-KOH pH 8.0, 5 mM betaine aldehyde
Excerpt: as §2

[12] = substrate: NCCCC=O; assay: as above; assay type: biochemical, Leymus chinensis; settings: 50 mM HEPES-KOH pH 8.0, 500 μM NAD+; remark: listed apart in the source
Excerpt: as §2

B1: LcBADH2 (Leymus chinensis) (protein)
chain: MASPAIPQRQLFIDGEWRAPALGRRLPVINPTTEASIGEIPSGTSEDVDAAVAAARAALKRNRGRDWSRAPGAVRAKYLRAIAAKMIERKADLARLEALDCGKPLDEAAWDMDDVAGCFEFFAGHAEALDKRQNAAVSLPENFKCHLKKEPIGVVSLITPWNYPLLMATWKVAPALAAGCTAVLKPSELASVTCLELADVCKEVGLPPGVLNVVTGLGPEAGAPLSSHPDVDKVAFTGSYATGQKIMVAAAPTVKAVTLELGGKSPIVVFDDVDIDKAVEWTLFGCFWTNGQICSATSRLLIHKNIAKEFVDRMVAWSKNIKVSDPLEEGCRLGPVVSEGQYEKIKKFISNAKSEGATILTGGVRPKHMEKGFFIEPTIITDINTSMEIWREEVFGPVLCVKEFSTEEEAIELANDTHYGLAGAVISGDRERCQRLAEEIDAGCIWVNCSQPCFCQAPWGGNKRSGFGRELGEGGIDNYLSIKQVTEYTSDAPWGWYKAPAN
notes: approx 54 kDa
Km [1]: 109 ± 10.0 µM
Vmax [1]: 1.59 µmol/min/mg
Km [2]: 22.1 ± 1.50 µM
Vmax [2]: 1.33 µmol/min/mg
Km [3]: 91.4 ± 9.60 µM
Vmax [3]: 1.01 µmol/min/mg
Km [4]: 4.53 ± 0.81 µM
Vmax [4]: 2.16 µmol/min/mg
Km [5]: 7.66 ± 0.60 µM
Vmax [5]: 1.36 µmol/min/mg
Km [6]: 1.96 ± 0.30 µM
Vmax [6]: 1.29 µmol/min/mg
Km [7]: 3680 ± 725 µM

B2: LcBADH1 (Leymus chinensis) (protein)
chain: MAAPPAIPRRGLFIGGGWREPTLGRRIPVINPATEDTIGDIPAATVEDVELAVAAARSAFLLDGGSRWSRASGATRAKYLNAIAAKIKEKISYLALLETVDSGKPKDEAVADMDDVAACFEYYAGLAEALDGKQHAPISLPMEEFKTYVLKEPIGVVGLITPWNYPLLMATWKVAPALAAGCTAVLKPSELASLTCLELGAICEEIGLPSGVLNIITGLGADAGAPIASHPHVDKIAFTGSTATSKTIMTAAAQMVKPVSLELGGKSPLVIFDDVADIDKAVEWAMFGCFFNGGQVCSATSRLLLREKIAERFLDRLVEWAKNIKISDPLEEGCRLGSVVSKGQYEKIKKFISTARSEGATILHGGDRPKHLGKGFFIEPTIITDVSTSMQIWREEVFGPVICVKVFKTESEAIELANDTHYGLAGGVISDDLERCERIAKVIHSGIVWINCSQPTLVQAPWGGNKQSGFGRELGEWGLENYLSVKQVTRYCKDELYGWYQRPSKL
notes: approx 54 kDa
Km [1]: 27300 ± 7000 µM
Km [8]: 56.5 ± 17.0 µM
Km [9]: 762 ± 175 µM
Km [10]: 27.4 ± 6.30 µM
Km [11]: 15.6 ± 5.70 µM
Km [12]: 48.1 ± 12.6 µM
